{"source": "paper PMC3155546", "about": "(PLoS ONE, 2011)", "molecular_target": "T1, GST-TPPP1–219 (human, UniProt O94811 1-219)", "T1 construct": "also called GST-TPPP(FL); full-length TPPP", "T1 sequence (O94811 whole entry, the tested form may be a part)": "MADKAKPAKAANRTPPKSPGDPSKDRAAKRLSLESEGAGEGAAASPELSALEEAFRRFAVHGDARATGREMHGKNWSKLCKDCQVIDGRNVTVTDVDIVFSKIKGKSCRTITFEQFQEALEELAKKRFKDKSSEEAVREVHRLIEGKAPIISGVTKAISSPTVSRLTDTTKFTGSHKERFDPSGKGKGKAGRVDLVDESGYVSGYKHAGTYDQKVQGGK", "assay": "co-IP", "details": "both partners purified", "data": [{"binder": "KTNMKHMAGAAAAGAVVGGLG (domain or fragment)", "note": "[GST-PrP106–126]", "values": [{"measurement": "binding result", "result": "binds"}]}]}
